Results taken from PMC5777638 (Nature, 2018).

T1: RNA polymerase III subunit C128 (Saccharomyces cerevisiae, UniProt P22276 1-1149)
T1 sequence (looked up): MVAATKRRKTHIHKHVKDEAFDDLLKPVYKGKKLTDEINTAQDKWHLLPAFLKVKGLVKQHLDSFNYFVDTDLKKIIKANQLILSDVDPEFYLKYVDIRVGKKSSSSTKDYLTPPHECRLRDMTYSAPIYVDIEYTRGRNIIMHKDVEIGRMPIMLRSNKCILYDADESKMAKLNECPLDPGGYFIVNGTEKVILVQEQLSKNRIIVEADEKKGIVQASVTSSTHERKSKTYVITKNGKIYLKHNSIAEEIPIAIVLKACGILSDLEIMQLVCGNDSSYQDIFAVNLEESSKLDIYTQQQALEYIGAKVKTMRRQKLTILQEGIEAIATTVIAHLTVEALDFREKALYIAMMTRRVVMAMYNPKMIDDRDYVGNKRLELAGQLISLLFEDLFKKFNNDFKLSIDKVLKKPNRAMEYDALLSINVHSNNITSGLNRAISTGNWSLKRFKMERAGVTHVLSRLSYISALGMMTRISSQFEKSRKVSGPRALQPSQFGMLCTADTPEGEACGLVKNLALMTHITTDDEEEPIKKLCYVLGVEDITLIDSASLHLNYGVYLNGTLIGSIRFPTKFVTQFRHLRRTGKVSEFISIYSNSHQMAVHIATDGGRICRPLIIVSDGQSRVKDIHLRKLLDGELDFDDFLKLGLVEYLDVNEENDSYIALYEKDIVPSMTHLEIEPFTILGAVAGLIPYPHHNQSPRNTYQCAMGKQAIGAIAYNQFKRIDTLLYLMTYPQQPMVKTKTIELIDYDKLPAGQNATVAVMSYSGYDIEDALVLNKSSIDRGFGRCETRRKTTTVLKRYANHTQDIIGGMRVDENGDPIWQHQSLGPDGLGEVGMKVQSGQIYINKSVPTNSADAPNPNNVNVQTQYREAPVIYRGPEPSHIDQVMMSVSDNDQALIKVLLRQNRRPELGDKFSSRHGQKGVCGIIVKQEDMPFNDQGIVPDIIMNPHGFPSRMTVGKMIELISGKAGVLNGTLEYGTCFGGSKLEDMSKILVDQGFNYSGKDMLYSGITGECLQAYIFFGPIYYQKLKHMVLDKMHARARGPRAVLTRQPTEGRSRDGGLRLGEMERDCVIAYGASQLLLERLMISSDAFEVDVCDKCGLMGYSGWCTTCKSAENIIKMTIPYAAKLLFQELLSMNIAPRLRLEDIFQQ

B1: RNA polymerase III subunit C34 (natural protein, Saccharomyces cerevisiae, UniProt P32910 1-317, looked up)
chain: MSGMIENGLQLSDNAKTLHSQMMSKGIGALFTQQELQKQMGIGSLTDLMSIVQELLDKNLIKLVKQNDELKFQGVLESEAQKKATMSAEEALVYSYIEASGREGIWSKTIKARTNLHQHVVLKCLKSLESQRYVKSVKSVKFPTRKIYMLYSLQPSVDITGGPWFTDGELDIEFINSLLTIVWRFISENTFPNGFKNFENGPKKNVFYAPNVKNYSTTQEILEFITAAQVANVELTPSNIRSLCEVLVYDDKLEKVTHDCYRVTLESILQMNQGEGEPEAGNKALEDEEEFSIFNYFKMFPASKHDKEVVYFDEWTI

Assays:
[1] = molecular target: T1, RNA polymerase III subunit C128; experiment: cryo-EM structure
[2] = molecular target: B1; experiment: cryo-EM structure

| binding result [1] | binding result [2] | Binder |
| --- | --- | --- |
| binds |  | B1 |
|  | binds | RNA polymerase III subunit C37 (natural protein, Saccharomyces cerevisiae, UniProt P36121 1-282, looked up) MSIDNKLFVTEEDEEDRTQDRADVEDESNDIDMIADENGTNSAIANEQEEKSEEVKAEDDTGEEEEDDPVIEEFPLKISGEEESLHVFQYANRPRLVGRKPAEHPFISAARYKPKSHLWEIDIPLDEQAFYNKDKAESEWNGVNVQTLKGVGVENNGQYAAFVKDMQVYLVPIERVAQLKPFFKYIDDANVTRKQEDARRNPNPSSQRAQVVTMSVKSVNDPSQNRLTGSLLAHKVADEEANIELTWAEGTFEQFKDTIVKEAEDKTLVALEKQEDYIDNLV |
